Source: the supplement of paper PMC12458215
± gives the uncertainty stated by the source.

System: HEK293T
Assay: plasma membrane surface immunostaining intensity (anti-HA, deep receptor scanning) (arbitrary fluorescence units); higher = higher plasma membrane expression

| Sequence | plasma membrane surface immunostaining intensity (GPCR class: B) | plasma membrane surface immunostaining intensity (GPCR class: A) | further results |
| --- | --- | --- | --- |
| MRGFNLLLFWGCCVMHSWEGHIRPTRKPNTKGNNCRDSTLCPAYATCTNTVDSYYCACKQGFLSSNGQNHFKDPGVRCKDIDECSQSPQPCGPNSSCKNLSGRYKCSCLDGFSSPTGNDWVPGKPGNFSCTDINECLTSSVCPEHSDCVNSMGSYSCSCQVGFISRNSTCEDVDECADPRACPEHATCNNTVGNYSCFCNPGFESSSGHLSFQGLKASCEDIDECTEMCPINSTCTNTPGSYFCTCHPGFAPSNGQLNFTDQGVECRDIDECRQDPSTCGPNSICTNALGSYSCGCIAGFHPNPEGSQKDGNFSCQRVLFKCKEDVIPDNKQIQQCQEGTAVKPAYVSFCAQINNIFSVLDKVCENKTTVVSLKNTTESFVPVLKQISTWTKFTKEETSSLATVFLESVESMTLASFWKPSANITPAVRTEYLDIESKVINKECSEENVTLDLVAKGDKMKIGCSTIEESESTETTGVAFVSFVGMESVLNERFFKDHQAPLTTSEIKLKMNSRVVGGIMTGEKKDGFSDPIIYTLENIQPKQKFERPICVSWSTDVKGGRWTSFGCVILEASETYTICSCNQMANLAVIMASGELTMDFSLYIISHVGIIISLVCLVLAIATFLLCRSIRNHNTYLHLHLCVCLLLAKTLFLAGIHKTDNKMGCAIIAGFLHYLFLACFFWMLVEAVILFLMVRNLKVVNYFSSRNIKMLHICAFGYGLPMLVVVISASVQPQGYGMHNRCWLNTETGFIWSFLGPVCTVIVINSLLLTWTLWILRQRLSSVNAEVSTLKDTRLLTFKAFAQLFILGCSWVLGIFQIGPVAGVMAYLFTIINSLQGAFIFLIHCLLNGQVREEYKRWITGKTKPSSQSQTSRILLSSMPSASKTG [ADGRE1] | 948 ± 160 |  |  |
| MRLSAGPDAGPSGNSSPWWPLATGAGNTSREAEALGEGNGPPRDVRNEELAKLEIAVLAVTFAVAVLGNSSVLLALHRTPRKTSRMHLFIRHLSLADLAVAFFQVLPQMCWDITYRFRGPDWLCRVVKHLQVFGMFASAYMLVVMTADRYIAVCHPLKTLQQPARRSRLMIAAAWVLSFVLSTPQYFVFSMIEVNNVTKARDCWATFIQPWGSRAYVTWMTGGIFVAPVVILGTCYGFICYNIWCNVRGKTASRQSKGAEQAGVAFQKGFLLAPCVSSVKSISRAKIRTVKMTFVIVTAYIVCWAPFFIIQMWSVWDPMSVWTESENPTITITALLGSLNSCCNPWIYMFFSGHLLQDCVQSFPCCQNMKEKFNKEDTDSMSRRQTFYSNNRSPTNSTGMWKDSPKSSKSIKFIPVST [AVPR1A] |  | 497 ± 41 |  |
| MRMEDEDYNTSISYGDEYPDYLDSIVVLEDLSPLEARVTRIFLVVVYSIVCFLGILGNGLVIIIATFKMKKTVNMVWFLNLAVADFLFNVFLPIHITYAAMDYHWVFGTAMCKISNFLLIHNMFTSVFLLTIISSDRCISVLLPVWSQNHRSVRLAYMACMVIWVLAFFLSSPSLVFRDTANLHGKISCFNNFSLSTPGSSSWPTHSQMDPVGYSRHMVVTVTRFLCGFLVPVLIITACYLTIVCKLQRNRLAKTKKPFKIIVTIIITFFLCWCPYHTLNLLELHHTAMPGSVFSLGLPLATALAIANSCMNPILYVFMGQDFKKFKVALFSRLVNALSEDTGHSSYPSHRSFTKMSSMNERTSMNERETGML [CMKLR1] |  | 747 ± 64 |  |
| MRPPSPLPARWLCVLAGALAWALGPAGGQAARLQEECDYVQMIEVQHKQCLEEAQLENETIGCSKMWDNLTCWPATPRGQVVVLACPLIFKLFSSIQGRNVSRSCTDEGWTHLEPGPYPIACGLDDKAASLDEQQTMFYGSVKTGYTIGYGLSLATLLVATAILSLFRKLHCTRNYIHMHLFISFILRAAAVFIKDLALFDSGESDQCSEGSVGCKAAMVFFQYCVMANFFWLLVEGLYLYTLLAVSFFSERKYFWGYILIGWGVPSTFTMVWTIARIHFEDYGCWDTINSSLWWIIKGPILTSILVNFILFICIIRILLQKLRPPDIRKSDSSPYSRLARSTLLLIPLFGVHYIMFAFFPDNFKPEVKMVFELVVGSFQGFVVAILYCFLNGEVQAELRRKWRRWHLQGVLGWNPKYRHPSGGSNGATCSTQVSMLTRVSPGARRSSSFQAEVSLV [VIPR1] | 5730 ± 200 |  |  |
| MRRNCTLVTEFILLGLTSRRELQILLFTLFLAIYMVTVAGNLGMIVLIQANAWLHMPMYFFLSHLSFVDLCFSSNVTPKMLEIFLSEKKSISYPACLVQCYLFIALVHVEIYILAVMAFDRYMAICNPLLYGSRMSKSVCSFLITVPYVYGALTGLMETMWTYNLAFCGPNEINHFYCADPPLIKLACSDTYNKELSMFIVAGWNLSFSLFIICISYLYIFPAILKIRSTEGRQKAFSTCGSHLTAVTIFYATLFFMYLRPPSKESVEQGKMVAVFYTTVIPMLNLIIYSLRNKNVKEALIKELSMKIYFS [OR5M8] |  |  | plasma membrane surface immunostaining intensity (GPCR class: A (Olfactory)): 115 ± 18 |
